The text below walks through data of patent publication US20230121197A1, “ANTIBODIES SPECIFICALLY BINDING THE CARBOXYMETHYLATED CATALYTIC SUBUNIT OF PROTEIN PHOSPHATASE 2A” (Medizinische Universität Wien, priority 2020, published 2023).

No end group written: not given here.

In test [1] the target is T1, PP2Ac C-terminal peptide meL309, ac-HVTRRTPDYFL-CH3 (α-carboxymethylated) (human, SMILES …).
T1 construct: also called Y307-meL309; mePP2Ac
T1 peptide: Ac-HVTRRTPDYFL-OMe
The test can be described thus: SPR, ratio of steady-state KD values. An excerpt:
(A) Saturation curve of the titration of the α-carboxymethylated PP2Ac C-terminal peptide (SEQ ID NO:18) on 7C10-C5 or 2A10 immobilized on a Series S Sensor Chip CM5 (GE Healthcare, 10296958). […] (B) Saturation curve of the titration of the α-carboxymethylated PP4c C-terminal peptide (SEQ ID NO:20) on 7C10-C5 or 2A10 immobilized on a Series S Sensor Chip CM5 (GE Healthcare, 10296958). […] The KD values were obtained using the fitting tool of the BiacoreT200 Evaluation Software (version 3.1).
(§1) The differential affinity of anti-carboxymethylated PP2Ac antibodies, 7C10-C5 and 2A10, to carboxymethylated PP2A catalytic subunit versus noncarboxymethylated PP2A catalytic subunit was determined by surface plasmon resonance (SPR) on a Biacore T200 (GE Healthcare) at the Core Facility Biomolecular & Cellular Analysis (University of Natural Resources and Life Sciences Vienna BOKU). The affinity of 7C10-C5 for carboxymethylated and noncarboxymethylated catalytic subunit of PP4 (PP4c), a PP2A-related phosphatase, was also determined.
(In general: Surface plasmon resonance follows binding to a sensor surface in real time, without labels.)

For test [2], the target named is T2, PP4c C-terminal peptide meL307, ac-PSKKPVADYFL-CH3 (α-carboxymethylated) (human, SMILES …).
T2 construct: also called mePP4c; PP4 Me
T2 peptide: Ac-PSKKPVADYFL-OMe
Description: SPR (Biacore T200), antibody captured, peptide 50-800 nM as analyte, steady state analysis, 25 °C; SPR steady state; antibody captured at 50 µg/ml, PP4 Me peptide 50-800 nM as analyte. How it is done: as §1
(§2) Series S Sensor Chip CM5 (GE Healthcare, 10296958) Flow cells (e.g. Flow cells 3 and 4 for the data shown in Table 5 and FIG. 32) were coated with 30 μg/mL anti-mouse IgG antibody (in immobilization buffer) using the mouse antibody capture kit (GE Healthcare, BR-1008-38, Lot 10294578) via amine coupling according to the manufacturer's protocol (i.e. https://www.cytivalifesciences. com/en/us/shop/protein-analysis/spr-lab el-free-analysis/capture-reagents/mouse-antibody-capture-kit-p-05986). The immobilisation levels obtained were 11620.2 RU (Flow cell 1), 10836.5 RU (Flow cell 2), 11605.9 RU (Flow cell 3) and 11333.9 RU (Flow cell 4), and thus were within the specifications. […]
(§3) SPR experiments were performed with the BiacoreT200 instrument (Cytiva). […] The sensorgrams obtained were analyzed with BiacoreT200 Evaluation Software (version 3.1).

Test [3] deals with T1, PP2Ac C-terminal peptide meL309, …. The test can be described thus: SPR (Biacore T200), antibody captured by anti-mouse IgG on CM5 chip, peptide 5-160 nM as analyte, steady state analysis, 25 °C. How it is done: as §1, §2, §3
In test [4] the target is T3, PP6c C-terminal peptide meL305, ac-IPPRTTTPYFL-CH3 (α-carboxymethylated) (human, SMILES …).
T3 construct: also called PP6 meLeu305
T3 peptide: Ac-IPPRTTTPYFL-OMe
Description: ELISA, values normalized to meL309, Neg = TBS only, N=7. An excerpt: (§4) FIG. 9: Monoclonal antibody 7C10-C5 detects α-carboxymethylated PP2Ac C-terminal peptides with >10-fold higher signal intensity than the α-carboxymethylated PP4c and PP6c C-terminal peptides in ELISA. Nunc Medisorp 96-well ELISA flat-bottom plates were coated with PP2Ac peptides L309 (ac-[…]) (SEQ ID NO:18), meL309 (ac-[…]-CH3) (SEQ ID NO:18), PP4c peptides L307 (ac-[…]) (SEQ ID NO:20), meL307 (ac-[…]-CH₃) (SEQ ID NO:20), PP6c peptides L305 (ac-[…]) (SEQ ID NO:22) or meL305 (ac-[…]-CH₃) (SEQ ID NO:22) at 2 μg/ml in TBS or TBS only (Neg) at 4° C. over-night. After washing once with TBS, the wells were incubated with 2% BSA in TBS for 1 h at RT. After washing once with TBS, the wells were incubated with single clone hybridoma cell culture supernatant, clone 7C10-C5 1:50 for 1 h at RT. After washing twice with TBS, wells were incubated with anti-mouse and anti rabbit HRP-coupled secondary antibody for 1 h at RT, followed by washing 3× in PBS. Bound antibodies were detected by colorimetric reaction with 3,3′,5,5′-Tetramethylbenzidine as substrate, and absorbance was measured at 450 nm. Values were normalized to meL309 which was set to 1. Average and standard deviation of N=7 experiments are shown. […] Statistical significance was assessed using ANOVA followed by Tukey's HSD as a post-hoc test. […]
On the technique in general: In an ELISA, binding on a coated surface is turned into a signal by an enzyme label.

Test [5] has as its target T4, PP6c C-terminal peptide L305, ac-IPPRTTTPYFL (non-methylated) (human).
T4 construct: also called PP6 L305
T4 peptide: Ac-IPPRTTTPYFL
The description is as above.
Excerpt: as §4

As a reminder, the Kd is the equilibrium constant for the complex coming apart.

B1: 7C10-C5 monoclonal antibody (antibody, V domains shown)
VH: DVQLQESGPGLVKPSQSLSLTCSVTGYSITSGYYWNWIRQFPGNKLEWMGYISYDGSNNYNPSLKNRISITRDTSKNQFFLKLNSVTTEDTATYYCAGRFAYWGQGTLVTVSA
VL: DVLMTQTPLSLPVSLGDQASISCRSSQSIVHSNGNTYLEWYLQKPGQSPKLLIYKVSNRFSGVPDRFSGSGSGTDFTLKINRVEAEDLGVYYCFQGSHVPWTFGGGTKLEIK
notes: Used as hybridoma culture supernatant (ELISA, Western blot, IHC) or at 50 µg/mL (SPR); also called 7C10 X63; clone 7C10-C5
For the molecule B1, the “fold stronger binding than to carboxymethylated PP4c (ratio of KD)” value in test [1] was determined as 12 fold. Also, the values for the Kd in test [2] and in test [3] were 132 nM and 11 nM, respectively. Besides, the binding result in test [4] and in test [5] was “no binding” each time.
